Experimental data: patent US20240197919A1 (CALIFORNIA INSTITUTE OF TECHNOLOGY, published 2024)

B1: AAV-X1 (other)
chain: MAADGYLPDWLEDNLSEGIREWWALKPGAPQPKANQQHQDNARGLVLPGYKYLGPGNGLDKGEPVNAADAAALEHDKAYDQQLKAGDNPYLKYNHADAEFQERLKEDTSFGGNLGRAVFQAKKRLLEPLGLVEEAAKTAPGKKRPVEQSPQEPDSSAGIGKSGAQPAKKRLNFGQTGDTESVPDPQPIGEPPAAPSGVGSLTMASGGGAPVADNNEGADGVGSSSGNWHCDSQWLGDRVITTSTRTWALPTYNNHLYKQISNSTSGGSSNDNAYFGYSTPWGYFDFNRFHCHFSPRDWQRLINNNWGFRPKRLNFKLFNIQVKEVTDNNGVKTIANNLTSTVQVFTDSDYQLPYVLGSAHEGCLPPFPADVFMIPQYGYLTLNDGSQAVGRSSFYCLEYFPSQMLRTGNNFQFSYEFENVPFHSSYAHSQSLDRLMNPLIDQYLYYLSRTINGSGQNQQTLKFSVAGPSNMAVQGRNYIPGPSYRQQRVSTTVTQNNNSEFAWPGASSWALNGRNSLMNPGPAMASHKEGEDRFFPLSGSLIFGKQGTGRDNVDADKVMITNEEEIKTTNPVATESYGQVATNHQSAQGNNTRSVAQAQTGWVQNQGILPGMVWQDRDVYLQGPIWAKIPHTDGNFHPSPLMGGFGMKHPPPQILIKNTPVPADPPTAFNKDKLNSFITQYSTGQVSVEIEWELQKENSKRWNPEIQYTSNYYKSNNVEFAVNTEGVYSEPRPIGTRYLTRNL
notes: Tested as an assembled rAAV particle; also called AAV-CAP.X1
B2: AAV-X1.1 (other)
chain: MAADGYLPDWLEDNLSEGIREWWALKPGAPQPKANQQHQDNARGLVLPGYKYLGPGNGLDKGEPVNAADAAALEHDKAYDQQLKAGDNPYLKYNHADAEFQERLKEDTSFGGNLGRAVFQAKKRLLEPLGLVEEAAKTAPGKKRPVEQSPQEPDSSAGIGKSGAQPAKKRLNFGQTGDTESVPDPQPIGEPPAAPSGVGSLTMASGGGAPVADNNEGADGVGSSSGNWHCDSQWLGDRVITTSTRTWALPTYNNHLYKQISNSTSGGSSNDNAYFGYSTPWGYFDFNRFHCHFSPRDWQRLINNNWGFRPKRLNFKLFNIQVKEVTDNNGVKTIANNLTSTVQVFTDSDYQLPYVLGSAHEGCLPPFPADVFMIPQYGYLTLNDGSQAVGRSSFYCLEYFPSQMLRTGNNFQFSYEFENVPFHSSYAHSQSLDRLMNPLIDQYLYYLSRTIDGAATKNQTLKFSVAGPSNMAVQGRNYIPGPSYRQQRVSTTVTQNNNSEFAWPGASSWALNGRNSLMNPGPAMASHKEGEDRFFPLSGSLIFGKQGTGRDNVDADKVMITNEEEIKTTNPVATESYGQVATNHQSAQGNNTRSVAQAQTGWVQNQGILPGMVWQDRDVYLQGPIWAKIPHTDGNFHPSPLMGGFGMKHPPPQILIKNTPVPADPPTAFNKDKLNSFITQYSTGQVSVEIEWELQKENSKRWNPEIQYTSNYYKSNNVEFAVNTEGVYSEPRPIGTRYLTRNL
notes: Tested as an assembled rAAV particle; also called AAV9-X1.1

Biological target: T1, Ly6a-Fc fusion protein (murine, UniProt P05533 27-112)
T1 construct: Captured on a protein A sensor chip for SPR; also called Ly6a-Fc protein; not shown: Fc part
T1 sequence: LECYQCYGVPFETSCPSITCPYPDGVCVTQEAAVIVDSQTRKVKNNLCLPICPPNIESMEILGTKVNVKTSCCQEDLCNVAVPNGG
Experiment: SPR, Ly6a-Fc captured on protein A chip, rAAV injected as analyte

| Binder | binding result |
| --- | --- |
| B1 | no binding |
| B2 | no binding |
